Data: US20240174744A1 (SCIRHOM, published 2024)

Experiments:
[1] = biological target: T1, human iRhom2 (inactive rhomboid protein 2, isoform 1), endogenously expressed on human cells (human, UniProt Q6PJF5 1-856); test: cell-based or functional assay
T1 sequence: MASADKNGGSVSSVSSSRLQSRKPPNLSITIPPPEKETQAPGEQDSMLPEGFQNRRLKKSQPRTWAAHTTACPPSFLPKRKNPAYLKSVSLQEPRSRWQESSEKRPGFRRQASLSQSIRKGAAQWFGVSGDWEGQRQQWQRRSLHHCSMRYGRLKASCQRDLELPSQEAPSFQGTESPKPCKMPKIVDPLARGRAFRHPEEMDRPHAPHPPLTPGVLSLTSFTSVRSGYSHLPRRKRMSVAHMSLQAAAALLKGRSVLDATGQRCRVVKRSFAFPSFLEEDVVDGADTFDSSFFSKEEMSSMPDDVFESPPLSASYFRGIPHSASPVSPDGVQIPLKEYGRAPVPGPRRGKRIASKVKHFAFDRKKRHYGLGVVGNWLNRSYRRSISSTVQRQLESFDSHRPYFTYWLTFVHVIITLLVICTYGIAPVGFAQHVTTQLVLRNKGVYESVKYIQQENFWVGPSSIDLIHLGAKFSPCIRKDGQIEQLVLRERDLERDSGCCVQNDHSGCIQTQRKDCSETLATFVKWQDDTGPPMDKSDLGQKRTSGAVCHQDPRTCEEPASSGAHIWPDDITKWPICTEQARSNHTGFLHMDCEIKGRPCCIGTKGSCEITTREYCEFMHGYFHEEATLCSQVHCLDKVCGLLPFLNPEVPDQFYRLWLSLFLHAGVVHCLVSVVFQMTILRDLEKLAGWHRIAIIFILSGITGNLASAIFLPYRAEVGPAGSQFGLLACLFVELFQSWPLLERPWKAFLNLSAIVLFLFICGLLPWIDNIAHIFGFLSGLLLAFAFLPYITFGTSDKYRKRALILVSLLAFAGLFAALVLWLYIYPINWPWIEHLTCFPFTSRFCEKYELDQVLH

[2] = biological target: T2, dog iRhom2 full length wild type, C-terminally tagged with 3 consecutive copies of the T7 epitope (dog, UniProt Q00M95 1-827); test: FACS, MEF-DKO-Dog-iR2-FL-WT-T7 cells
T2 construct: whole, on cells; also called Dog-iR2-FL-WT-T7
T2 sequence: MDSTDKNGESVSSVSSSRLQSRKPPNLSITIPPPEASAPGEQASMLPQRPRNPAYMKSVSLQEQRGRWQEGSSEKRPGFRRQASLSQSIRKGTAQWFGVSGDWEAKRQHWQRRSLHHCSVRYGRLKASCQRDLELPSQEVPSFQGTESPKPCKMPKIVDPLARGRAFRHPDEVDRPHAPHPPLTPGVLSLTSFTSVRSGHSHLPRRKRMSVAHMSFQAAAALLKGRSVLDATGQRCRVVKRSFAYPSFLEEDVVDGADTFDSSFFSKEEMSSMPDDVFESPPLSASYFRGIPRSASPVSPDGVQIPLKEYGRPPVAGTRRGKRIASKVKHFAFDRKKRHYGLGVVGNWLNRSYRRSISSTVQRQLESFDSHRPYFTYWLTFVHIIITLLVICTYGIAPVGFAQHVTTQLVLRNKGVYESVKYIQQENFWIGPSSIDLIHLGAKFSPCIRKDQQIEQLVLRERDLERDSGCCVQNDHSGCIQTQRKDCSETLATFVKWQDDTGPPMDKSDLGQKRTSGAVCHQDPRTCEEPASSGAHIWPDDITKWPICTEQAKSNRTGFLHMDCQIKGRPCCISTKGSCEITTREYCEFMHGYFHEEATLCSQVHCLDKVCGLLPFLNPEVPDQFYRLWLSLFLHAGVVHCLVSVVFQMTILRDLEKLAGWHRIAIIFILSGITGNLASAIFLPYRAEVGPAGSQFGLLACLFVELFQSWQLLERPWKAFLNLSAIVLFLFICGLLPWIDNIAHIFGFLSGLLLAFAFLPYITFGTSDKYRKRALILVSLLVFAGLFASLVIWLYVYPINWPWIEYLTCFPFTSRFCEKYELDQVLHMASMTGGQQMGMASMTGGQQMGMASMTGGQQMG
Procedure: In brief, immortalized MEF-DKO-EV control cells, MEF-DKO-rhesus-iR2-FL-WT-T7 cells, MEF-DKO-cyno-iR2-FL-WT-T7 cells, MEF-DKO-dog-iR2-FL-WT-T7 cells and MEF-DKO-rabbit-iR2-FL-WT-T7 cells, as well as their respective iRhom1 counterparts, were harvested with 10 mM EDTA in PBS, washed and resuspended in FACS buffer (PBS, 3% FBS, 0.05% sodium azide), and seeded in Nunc U-bottom 96-well plates (Thermo Fisher Scientific, USA) at approximately 3×10⁵ cells per well. To pellet cells and remove supernatants, the plates were centrifuged at 1,500 rpm and 4° C. for 3 minutes. For primary staining, cells were resuspended in 100 μl per well of either FACS buffer alone (controls), mouse monoclonal anti-T7 IgG (Merck Millipore, USA) at 3 μg/ml FACS buffer or the antibodies of the present disclosure also at 3 μg/ml FACS buffer and incubated on ice for 1 hour. Afterwards, plates were centrifuged at 1,500 rpm and 4° C. for 3 minutes and washed twice with 200 μl per well of FACS buffer. For secondary staining, cells were spun down and resuspended in 100 μl per well of PE-conjugated goat anti-mouse IgG F(ab′)2 detection fragment (Dianova, Germany) diluted 1:100 in FACS buffer. Protected from light, the cell suspensions were incubated on ice for 1 hour. Plates were then centrifuged at 1,500 rpm and 4° C. for 3 minutes and washed three times with 200 μl per well of FACS buffer. Finally, cells were resuspended in 150 μl per well of FACS buffer and analyzed using a BD Accuri™ C6 Plus flow cytometer (Becton Dickinson, Germany).

B1: antibody 43 (antibody, V domains shown)
VH: QVALKESGPGILQPSQTLSLTCSFSGFSLSTFGMGVGWIRQSSGKGLEWLANIWWDDDKYYNPALKSRLTISKDASKNQAFLKIANVDTADTATYYCARIGNYGSNYWYFDVWGTGTTVTVSS
VL: QIVLTQSPAIMSASPGERVTMTCSANSRISYMYWYQQKPGSSPRLLIYDTSNLASGVPVRFSGSGSGTSYSLTISRMEAEDAATYNCQQWSSYPLTFGAGTKLELK
notes: Mouse IgG, kappa light chain; also called clone #43
inhibition of LPS-induced release of TNFα from THP-1 cells, 10 µg/ml, antibody purified from hybridoma [1]: 74.8 % inhibition
inhibition of LPS-induced release of TNFα from THP-1 cells, recombinant antibody [1]: 78.5 % inhibition
inhibition of PMA-induced release of IL-6R from THP-1 cells, 1 µg/ml [1]: 72.9 % inhibition
inhibition of PMA-induced release of IL-6R from U-937 cells, 1 µg/ml [1]: 76.1 % inhibition
inhibition of PMA-induced release of TGFα from PC3 cells, 1 µg/ml [1]: 12.4 % inhibition
inhibition of PMA-induced release of TNFα from U-937 cells, 1 µg/ml [1]: 78.3 % inhibition
binding result [2]: binds

B2: antibody 5 (antibody, V domains shown)
VH: QVTLKESGPGILQPSQTLSLTCSFSGFSLSTFGMGVGWIRQPSGKGLEWLAHIWWDDEKYYNSALKSRLTISKATSKNQAFLKIANVDTADTATYYCARISNYGSNYWYFNVWGTGTTVTVSS
VL: QVVLTQSPALMSASPGEKVTMTCSAGSSVSCMYWYQQKPGSSPRVLIYDTSNLASGVPARFTGSGSGTSYSLTISRMEAEDAASYYCQQWNSYPLTFGAGTKLELK
notes: Mouse IgG, kappa light chain; also called clone #5; purified antibody 5
inhibition of LPS-induced release of TNFα from THP-1 cells, 10 µg/ml, antibody purified from hybridoma [1]: 69 % inhibition
inhibition of LPS-induced release of TNFα from THP-1 cells, recombinant antibody [1]: 70.5 % inhibition
inhibition of PMA-induced release of IL-6R from THP-1 cells, 1 µg/ml [1]: 64.1 % inhibition
inhibition of PMA-induced release of IL-6R from U-937 cells, 1 µg/ml [1]: 67 % inhibition
inhibition of PMA-induced release of TNFα from U-937 cells, 1 µg/ml [1]: 63.6 % inhibition

B3: antibody 51 (antibody, V domains shown)
VH: QVQLQQSGAELVKPGASVKISCKASGYTFSNYWMNWVKQRPGKGLEWIGQIYPGDGDTKYNGKFKNKATLTADKSSSTAYMQFSSLTSEDSAVYFCARGDLVFVYWGLGTLVTVSA
VL: DVQITQSPSYLAVSPGETITINCRASKNIRKYLAWYQEKPGKTNKLLIYSGSTSQSGVPSRFSGSGSGTDFTLTISSLEPEDFAMYYCQQHNEYPYTFGGGTKLEIK
notes: Mouse IgG, kappa light chain; also called clone #51
binding result [2]: binds

B4: antibody 16 (antibody, V domains shown)
VH: QVTLKESGPGILQPSQTLSLTCSFSGFSLSTFALGVGWIRQPSGRGLEWLAHIWWDDDKYYNPALKSRLTISKDTSKNHVFLKIANVDTADTATYYCARITTYYYGMDYWGQGTSVTVSS
VL: DIVLSQSPATLSVTPGDSVSLFCRASQSIGNHLHWYQQESHASPRLLIKYASQSISGIPSRFSGSGSGTDFTLSINSVETEDFGMYFCQQSYNWPLTFGAGTKLELK
notes: Mouse IgG, kappa light chain; also called clone #16; m16
inhibition of LPS-induced release of TNFα from PBMCs of healthy donors, 1 µg/ml [1]: 81.3 % inhibition
inhibition of LPS-induced release of TNFα from THP-1 cells, 10 µg/ml, antibody purified from hybridoma [1]: 65.4 % inhibition
inhibition of LPS-induced release of TNFα from THP-1 cells, recombinant antibody [1]: 70.7 % inhibition
inhibition of LPS-induced release of TNFα from human macrophages of healthy donors [1]: 85.8 % inhibition
inhibition of PMA-induced release of HB-EGF from PBMCs of healthy donors, 1 µg/ml [1]: 71.6 % inhibition
inhibition of PMA-induced release of HB-EGF from THP-1 cells, 3 µg/ml [1]: 71.9 % inhibition
inhibition of PMA-induced release of HB-EGF from U-937 cells [1]: 99.6 % inhibition
inhibition of PMA-induced release of IL-6R from PBMCs of healthy donors, 1 µg/ml [1]: 84.3 % inhibition
inhibition of PMA-induced release of IL-6R from THP-1 cells, 1 µg/ml [1]: 72.5 % inhibition
inhibition of PMA-induced release of IL-6R from U-937 cells, 1 µg/ml [1]: 77.7 % inhibition
inhibition of PMA-induced release of IL-6R from U-937 cells, 3 µg/ml [1]: 77.4 % inhibition
inhibition of PMA-induced release of TGFα from PC3 cells, 1 µg/ml [1]: 13.9 % inhibition
inhibition of PMA-induced release of TNFα from U-937 cells, 1 µg/ml [1]: 91.6 % inhibition
inhibition of PMA-induced release of TNFα from U-937 cells, 3 µg/ml [1]: 91.9 % inhibition

B5: antibody 3 (antibody, V domains shown)
VH: QVTLKESGPGILQPSQTLSLTCSFSGFSLTTFAMGIGWVRQPSGKGLEWLAHIWWDGEKYNNPVLKSRLTISKDTSKNQVFLRIANVDTPDTATYYCARISSIYYIIDNWGQGTSVTVSS
VL: DIVLTQSPATLSVTPGHSVSLSCRASQSISNNLHWYQKKSHESPRLLIKYVSQSISGIPSRFSGSGSGTDFTLSINSVETEDFGMYFCQQSYNWPLTFGAGTKLELK
notes: Mouse IgG, kappa light chain; also called clone #3; purified antibody 3
inhibition of LPS-induced release of TNFα from THP-1 cells, 10 µg/ml, antibody purified from hybridoma [1]: 71.2 % inhibition
inhibition of LPS-induced release of TNFα from THP-1 cells, recombinant antibody [1]: 59.9 % inhibition
inhibition of PMA-induced release of IL-6R from THP-1 cells, 1 µg/ml [1]: 46.7 % inhibition
inhibition of PMA-induced release of IL-6R from U-937 cells, 1 µg/ml [1]: 61.8 % inhibition
inhibition of PMA-induced release of TNFα from U-937 cells, 1 µg/ml [1]: 65.9 % inhibition

B6: antibody 48 (antibody, V domains shown)
VH: QVQLQQSGTELVRPGTSVKVSCKASGYAFTNYLIEWVKQRPGQGLEWIGVINPGSGFTKYNEKFKGKATLTADKSSSTVYMHLSSLTSEDSAVYFCARGLYRAMDYWGQGTSVTVSS
VL: DIQMTQSPASQSASLGESVTITCLASQTIATWLAWYQQKPGKSPQLLIYGATTLADGVPSRFSGGGSGTKFSFKISSLQAEDFVSYYCQQLYSTPYTFGGGTKLEIK
notes: Mouse IgG, kappa light chain; also called clone #48; purified antibody 48
binding result [2]: binds

B7: antibody 47 (antibody, V domains shown)
VH: QVQLQQSGAELVRPGTSVKVSCKASGYAFTNYLIEWVKQRPGQGLEWIGVINPGSGFTNYNEKFKGKAILNADKSSSTAYMQLISLTSEDSAVYFCARDLKRAMDHWGQGTSVTVSS
VL: DIQMTQSPASQSASLGESVTITCLASQTIGTWLAWYQQKPGKSPQLLIHAATSLADGVPSRFSGSGSGTKFSFKISSLQAEDFVSYYCQQIYSSPYTFGGGTKLEIK
notes: Mouse IgG, kappa light chain; also called clone #47
binding result [2]: binds

B8: antibody 50 (antibody, V domains shown)
VH: QVQLQQSGAELVRPGASVKVSCKASGYAFSNYLIEWVKQRPGQGLEWIGVINPGSGFTKYNEKFKGKATLTADKSSSTAYMQLSSLTSEDSAVYFCARGLYRAMDYWGQGTSVTVSS
VL: DIQMTQSPASQSASLGESVTITCLASQTIGTWLAWYQQKPGKSPQLLIYAAASLADGVPSRFSGGGSGTKFSFKISSLQAEDFVNYYCQQIYSTPYTFGGGTKLEIK
notes: Mouse IgG, kappa light chain; also called clone #50; purified antibody 50
binding result [2]: binds
